The data set is described as follows: yeast display, Sf9 membrane polyspecificity reagent, FACS + sequencing; frameworks hold sequencing errors. In outline: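 After 36–48 hours of galactose induction, yeast (Saccharomyces cerevisiae BJ5465) displaying a synthetic nanobody library were stained at 4 °C for 1 hour with 10% biotinylated, detergent-solubilized Sf9 membrane reagent. Streptavidin microbeads enriched the stained cells before FACS sorting into low and high (top ~1%) gates on anti-HA and streptavidin fluorescence. Each clone's polyreactivity label reflects its gate of origin.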
For the sequence “QVQLVESGGGLVQAGGSLRLSCAASGSTFLTNAMGWYRQAPGKERELVAAITWSGTSTYADSVKGRFTISRDNAKNTVYLQMNSLKPDDTAVYYCAAPILSFPSPYVQYDYWGQGTQVTVSS”, the “polyreactivity (PSR sort gate)” value is listed as “low polyreactivity”.
The entry for “QVQLVESGGGLVQAGGSLRLSCAASGSTFLTNTMGWYRQAPGKERELVAAITLRGGRTYYADSVKGRFTISRDNAKNTVYLQMNSLKPEDTAVYYCNARNYYYPSDRDYWGQGTQVTVSS” is “low polyreactivity”.
Next, “QVQLVESGGGLVQAGGSLRLSCAASGSTFLVNAMGWYRQAPGKERELVAAITSGGDTNYADSVKGRFTISHDNAKNTVYLQMNSLKPEDTEVYYCATDYFNYRYFDFRWYYYWGQGTQVTVSS”: “high polyreactivity”; “QVQLVESGGGLVQAGGSLRLSCAASGSTFLVYAMGWSRQAPGKERELVAAIRGGGSTNYADSVKGRFTISRDNAKNTVYLQMNSLKPEDTGVYYCAAYLLYTPSMDYWGQGTQVTVSS”: “low polyreactivity”.
The entry for “QVQLVESGGGLVQAGGSLRLSCAASGSTFLWNAMGWYRQAPAKERELVAAISYSGGSTYYADSVKGRFTISRDNAMNTVYLQKNSLKPEDTAFYYCAKEWFYDPYPPGYDSWGQGPQVTVSS” is “low polyreactivity”; for “QVQLVESGGGLVQAGGSLRLSCAASGSTFLWYAMGWYTQAPGKERELVATISGSGGSTYYADSVKGRFTISRDNAKNTVYLQMNSLKPEDTAGYYCAAGTLVQRSRWVTFSAYDGDYWGQGTQVTVSS” it is “high polyreactivity”; for “QVQLVESGGGLVQAGGSLRLSCAASGSTFLYVMGWYRQAPGKERELVAAISESGGSTYYADSVKGRFTISRDNAKNTVYLQMNSLKPEDTAVYYCAADLQTGLQYRYYRVDYWGQGTQVTVSS” it is “low polyreactivity”.
Take “QVQLVESGGGLVQAGGSLRLSCAASGSTFLYYAKGWSRQAPGKERELVAAISGSGGSTYYADSVKGRFTISRDNAKNTVYLQMNSLKPEDTAVYYCNAVARRHGLGPYDYWGQGTQVTVSS”: the “polyreactivity (PSR sort gate)” value is “high polyreactivity”.
Next, “QVQLVESGGGLVQAGGSLRLSCAASGSTFLYYAMGWYRPAPGKESELVAGISASGGSTYYADSVKGRFTISRDNAKITVYLQMNSLKPEDTAVYYCARYAGFPYTQCDYWGQGTQVTVSS”: “high polyreactivity”; “QVQLVESGGGLVQAGGSLRLSCAASGSTFLYYAMGWYRQAPGKEREFVAAISISGGSTYYADSVKGRFTISRDNAKNTVYLHMNSLKPEDTAVYYFAARKKEYKPGNYWGQGTQVTVSS”: “low polyreactivity”.
In the case of “QVQLVESGGGLVQAGGSLRLSCAASGSTFLYYAMGWYRQAPGKERELVAAIDWSDTSTYYADSVKGRFTISRDNAKNTVYLQMNSLKPEDTAVYYCAADTYLVDGDYWGQGTQETVSS”, the “polyreactivity (PSR sort gate)” value was “low polyreactivity”.
The entry for “QVQLVESGGGLVQAGGSLRLSCAASGSTFLYYAMGWYRQAPGKERELVAVISWSGVSTYYADSVKGRFTISRDNAKNTVYLQMNSLKPEDTPVYYCNTGNQYIRTYGYWGQGSQVTVSS” is “low polyreactivity”.
In the case of “QVQLVESGGGLVQAGGSLRLSCAASGSTFLYYDMGWYRQAPGKERELVADITWSGSGTYYADSVKGRFTISRDNAKNTVYLQMNSLKPEDTAVYYCDADDTWRGDQYFYSYDYWGQGTQVTVSS”, the “polyreactivity (PSR sort gate)” value is “low polyreactivity”.
The entry for “QVQLVESGGGLVQAGGSLRLSCAASGSTFNFNVMGWYRQAPGKERELVAAISSSGGNTYYADSVKGRFTISRDNAKNTVYLQMNSLKPEDTAVYYCAAEYEEWYSVFLYDYWGQGTQVTVSS” is “high polyreactivity”; for “QVQLVESGGGLVQAGGSLRLSCAASGSTFNFYAMGWYRQAPGKEREFVAAITSSGDSTYYADSVKGRFTISRDNAKNTVYLQLNSLKPEDTAVYYCAARLRWRYSYDYWGQGTQVTVSS” it is “high polyreactivity”; for “QVQLVESGGGLVQAGGSLRLSCAASGSTFNGYAMGWYRQAPGKERELVAAITSSGSRTYYADSVKGRFTISRDNAKNTVYLQMNSLKPVDTAVYYCNAGKLARTYFRSSSVSPGDYWGQGTQVTVSS” it is “high polyreactivity”.
Next, “QVQLVESGGGLVQAGGSLRLSCAASGSTFNHYAMGWYRQAPGKDRELVAAITKSGGSTYADSVKGRFTISRDNAKNSVYLQMNSLKPEDTAVYFCAAGRRKYGTKGRGDYWGQGTQVTVSS”: “low polyreactivity”; “QVQLVESGGGLVQAGGSLRLSCAASGSTFNHYTMGWYRQAPGKERELVAAISSRGGGTYYADSVKGRFTISRDNAKNTVYLQMNSLKPEDTAVYYCAALISSGIRHSRDYWGQGTQVTVSS”: “high polyreactivity”.
The entry for “QVQLVESGGGLVQAGGSLRLSCAASGSTFNINGMGWYRQAPGKERELVASITGSGGNTYYADSVKGRFTISRDNAKNTVYLQMNSLKPEDTAVYYCNTTLYTGQPGRTFDYWGQGTQVTVSS” is “low polyreactivity”; for “QVQLVESGGGLVQAGGSLRLSCAASGSTFNKYTMGWYRQAPGKERELVAAISSIGGSTYYADSVKGRFTISRDNAKNTVYLQMNSLKPEDTAVYYCAAPYPIGHDWGQGTQVTVSS” it is “low polyreactivity”.
With “QVQLVESGGGLVQAGGSLRLSCAASGSTFNLYAMGWYRQAPGKERELVAAISDGDSSTYYADSVKGRFTISRDNAKNTVYLQMNSLKPEDTAVYYCNARDDVYLITPYFLVYVNLDYWGQGTQVTVSS”, the “polyreactivity (PSR sort gate)” value is “low polyreactivity”.
The entry for “QVQLVESGGGLVQAGGSLRLSCAASGSTFNLYAMGWYRQAPGKERELVASISRSGVSTYYADSVKGRFTISRDNAKNTVYLQMNSLKPEDTAVYYCAVDKVLYRLYTGMDYWGQGTQVTVSS” is “low polyreactivity”.
Next, “QVQLVESGGGLVQAGGSLRLSCAASGSTFNNYAMGSYRQAPGKVREFVAAINGSGGSTYYADSVKGRFTISRDNAKNTVYLQLNSRKPEDPAVYYCAADVSATAYYDLMDYWVQGTQVTVSS”: “low polyreactivity”; “QVQLVESGGGLVQAGGSLRLSCAASGSTFNQNAMGWYRQATGKERELVAAITVDGSSTYYADSVKGRFTISRDNAKNTVYLQMNSLKPEDTAVYYCAAGYSARSSGYTGGYDYWGQGTQVTVSS”: “high polyreactivity”; “QVQLVESGGGLVQAGGSLRLSCAASGSTFNRYAMGWYRQAPGKERELVASITTSDSTNYADSVNGRFTISRDNANNTVFLQINSLNPEDTAVYYCNAEVRGVWYTYDYWGQGTHVTVSS”: “low polyreactivity”.
Next, “QVQLVESGGGLVQAGGSLRLSCAASGSTFNTYAMGWYRQAPGKERELVASIRLRGGSTYYADSVKGRFTISRDNAKNTVYLQMNSLKPEDTAVYYCAARTWPWVLGGTQDDYWGQGTQVTVSS”: “low polyreactivity”; “QVQLVESGGGLVQAGGSLRLSCAASGSTFNVYAMGWYRQAPGKERDLVAAIDSGDSTNYADSVKGRFTISRDNAKNTVYLEMNSLKPEDTAVYYCAVGYWDSRYRYDWPNSDYWGQGTQVTVSS”: “low polyreactivity”.
For the sequence “QVQLVESGGGLVQAGGSLRLSCAASGSTFNVYGLGWYRQAPGKERELVAAINRDGITYADSVKGRFTISRDNAKNTVYLQMNSLKPEDTAVYYCAAGYSPYKGSAGYYWGQGTQVTVSS”, the “polyreactivity (PSR sort gate)” value is “low polyreactivity”.
Next, “QVQLVESGGGLVQAGGSLRLSCAASGSTFNWDAMGWYRQAPGQERELVAAISKSGGTTYYADSVKGRFTISRDNAKNTVYLQMNSLKPEDTAVYYCAAVRRYHSYPDGGYWGQGTQVTVSS”: “high polyreactivity”; “QVQLVESGGGLVQAGGSLRLSCAASGSTFNWNAMRWYRQPPGKERELVAAITSSGARTRYADSVKGRFTISRDNAKNTVYLQMNSLKPEDTAVYYCAAYVYISPSGYYYWGLGTQVTVSS”: “low polyreactivity”.
“QVQLVESGGGLVQAGGSLRLSCAASGSTFNWYAMGWYRQAPGKEMELVAAITSTGGSTYADSVKGRFTISRDNAKNTVYLQMNSLKPEDTAVYYCNVDTSSPSRRDYDYWGQGTQVTVSS”: the “polyreactivity (PSR sort gate)” value is listed as “low polyreactivity”.
The entry for “QVQLVESGGGLVQAGGSLRLSCAASGSTFPFYAMGWYRQAPGKERELVAAIRYTGNTYYADSVKGRFTISRDNAKNTVFLLMISLKPEDTAVYYCAADADYWAYGYWGHGTQVTVSS” is “low polyreactivity”; for “QVQLVESGGGLVQAGGSLRLSCAASGSTFPFYAMGWYRQAPGKERELVATISSDGSTNYADSVKGRFTISRDNAKNTDYLQMNSLKPEDTAVYYCNALARWCAYYDYGYWGQGTQVTVSS” it is “low polyreactivity”.
Next, “QVQLVESGGGLVQAGGSLRLSCAASGSTFPFYVMGWYRQAPGKERELVASITATGSSTYYADSVKGRFTISRDNAKNTVYLQMNRLKPEDTAVYYCAAPYFGWYLGYYWYREYDYWGQGTQVTVSS”: “low polyreactivity”; “QVQLVESGGGLVQAGGSLRLSCAASGSTFPGNAMGWYRQAPGKERELVAAIDTSGGSTYYADSVKGRFTISRDNAKNTVYLQMNSLKAEDTAVYYCDADYLIEMDYWGQGTQVTVSS”: “low polyreactivity”.
The entry for “QVQLVESGGGLVQAGGSLRLSCAASGSTFPGYAMGWYRQAPGKERELVAAISKRGGSTYYADSVKGRFTISRDNAKNTVYLQMNSLKPEDTAVYYCATVSRKYSLDYWGQGTQVTVSS” is “high polyreactivity”.
For the sequence “QVQLVESGGGLVQAGGSLRLSCAASGSTFPGYAMGWYRQAPGKERELVAAITWSGVTTYYADTVKGRFTMSRDNAKNTVYIQMNSLKPEDTAVYYCATGTLYSDGAIYGYWGQATQVTVSS”, the “polyreactivity (PSR sort gate)” value was “low polyreactivity”.
Next, “QVQLVESGGGLVQAGGSLRLSCAASGSTFPKYAMGWYRQAPGKERELVAAITFTGSSTYYADSVKGRFTISRDNAKNTVYLQMNSLKPEDTAVYYCNAVYYTGYYWGQGTQVTVSS”: “low polyreactivity”; “QVQLVESGGGLVQAGGSLRLSCAASGSTFPLYAMGWYRQAPGKERELVATITGSGGSTNYADSVKGRFTISRDNAKNTVYLQMNSLKPEDTAVYYCNARRRRLVSYYYWGQGTQVTVSS”: “high polyreactivity”; “QVQLVESGGGLVQAGGSLRLSCAASGSTFPLYAMGWYRQAPGKEREMVAAITGGGGRTYYADSVKGRFTISRDNAKNTVYLQMNSLKPEDTAVYYCNAVVYLTNYWYDYWGQGTQVTVSS”: “low polyreactivity”.
Take “QVQLVESGGGLVQAGGSLRLSCAASGSTFPNYAMGWYRQAPGKERELVASISVTTGSTYYADSVKGRFTISRDYAKNTVYLQMNSLKPEDTAVYYCAKRTSSRKFRGAYNYWGQGTQVTVST”: the “polyreactivity (PSR sort gate)” value was “high polyreactivity”.

These data come from the nanobody polyreactivity screen of Harvey et al. (2022).
